# Laboratory results: publication PMC2622761
# Target: GST-PfMTIP (P. falciparum (3D7)) (UniProt Q8I4W8)
# Assay: pull-down; GST or GST-MTIP coupled to glutathione-Sepharose 4B; 25 µg His-tagged Rab protein incubated overnight at 4°C; four washes in PBS (0.1% Triton X-100); detected by anti-His immunoblot
substance,measurement,value
PfRab11A-His (natural protein),percent of input detected in the pull-down,5%
